Measurements reported in paper PMC4860841, “eIF2 interactions with initiator tRNA and eIF2B are regulated by post-translational modifications and conformational dynamics” (Cell Discovery, 2015).

B1: eukaryotic initiation factor 2 α-subunit (eIF2α) (natural protein, Saccharomyces cerevisiae, UniProt P20459 1-304, looked up)
chain: MSTSHCRFYENKYPEIDDIVMVNVQQIAEMGAYVKLLEYDNIEGMILLSELSRRRIRSIQKLIRVGKNDVAVVLRVDKEKGYIDLSKRRVSSEDIIKCEEKYQKSKTVHSILRYCAEKFQIPLEELYKTIAWPLSRKFGHAYEAFKLSIIDETVWEGIEPPSKDVLDELKNYISKRLTPQAVKIRADVEVSCFSYEGIDAIKDALKSAEDMSTEQMQVKVKLVAAPLYVLTTQALDKQKGIEQLESAIEKITEVITKYGGVCNITMPPKAVTATEDAELQALLESKELDNRSDSEDDEDESDDE
modifications: found in the purified protein (Table 1): N-term-ac-S2, pS194, pS292, pS294, pS301
notes: eIF2 α-subunit, encoded by SUI2 in yeast Saccharomyces cerevisiae; Expressed from plasmid pAV1089 [SUI2 SUI3 6xHisGCD22 URA3]; N-terminal acetylation on S2 implies that the first methionine is removed; also called SUI2; source: S. cerevisiae strain GP3511 overexpressing the three eIF2 subunits

How the values were obtained:
[1] = molecular target: T1, eukaryotic initiation factor 2 γ-subunit (eIF2γ), His-tagged (Saccharomyces cerevisiae, UniProt P32481 1-527, found in the purified protein (Table 1): pT60, acK129, pT137, pS258, pS265, pS312, acK401, acK519); experiment: native MS; intact His-tagged eIF2 purified from yeast, buffer exchanged against 500 mM ammonium acetate; QSTAR XL modified for high-mass complexes; tandem MS of the 24+ charge state of intact eIF2; settings: both partners purified
T1 construct: eIF2 γ-subunit, encoded by GCD11 in yeast Saccharomyces cerevisiae (the methods print the plasmid's gene as '6xHisGCD22'); also called GCD11; source: S. cerevisiae strain GP3511 overexpressing the three eIF2 subunits

[2] = molecular target: B1; experiment: cross-linking; purified apo eIF2 with a 1:1 mixture of 2.5 mM BS3-d0/d4, 1 h, room temperature; gel, trypsin, LC-MS/MS; also compared with the ternary complex (Met-tRNAi^Met, GDPNP) by BS3-d0 against BS3-d4; settings: both partners purified

T1 sequence (P32481 whole entry): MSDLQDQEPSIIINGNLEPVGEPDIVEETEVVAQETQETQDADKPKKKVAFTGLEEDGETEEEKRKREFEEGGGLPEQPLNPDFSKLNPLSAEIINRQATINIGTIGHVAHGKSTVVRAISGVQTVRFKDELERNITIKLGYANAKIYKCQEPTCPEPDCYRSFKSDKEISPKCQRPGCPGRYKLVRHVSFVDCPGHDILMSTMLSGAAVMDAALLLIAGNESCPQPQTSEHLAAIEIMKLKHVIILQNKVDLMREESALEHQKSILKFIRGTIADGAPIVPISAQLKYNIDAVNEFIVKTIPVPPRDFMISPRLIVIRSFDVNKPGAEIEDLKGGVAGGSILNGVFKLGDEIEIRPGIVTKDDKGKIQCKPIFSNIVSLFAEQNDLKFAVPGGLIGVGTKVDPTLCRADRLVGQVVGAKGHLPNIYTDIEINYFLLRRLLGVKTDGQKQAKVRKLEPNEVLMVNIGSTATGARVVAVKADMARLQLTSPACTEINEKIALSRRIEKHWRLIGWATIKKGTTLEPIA

| Binder | stoichiometry N [1] | binding result [2] |
| --- | --- | --- |
| B1 | 1 |  |
| eukaryotic initiation factor 2 β-subunit (eIF2β) (natural protein, Saccharomyces cerevisiae, UniProt P09064 1-285, looked up, found in the purified protein (Table 1): N-term-ac-S2, pS40, acK89, pS91, pS92, pS112, eIF2 β-subunit, encoded by SUI3 in yeast Saccharomyces cerevisiae; Expressed from plasmid pAV1089 [SUI2 SUI3 6xHisGCD22 URA3]; N-terminal acetylation on S2 implies that the first methionine is removed; also called SUI3; source: S. cerevisiae strain GP3511 overexpressing the three eIF2 subunits) MSSDLAAELGFDPALKKKKKTKKVIPDDFDAAVNGKENGSGDDLFAGLKKKKKKSKSVSADAEAEKEPTDDIAEALGELSLKKKKKKTKDSSVDAFEKELAKAGLDNVDAESKEGTPSANSSIQQEVGLPYSELLSRFFNILRTNNPELAGDRSGPKFRIPPPVCLRDGKKTIFSNIQDIAEKLHRSPEHLIQYLFAELGTSGSVDGQKRLVIKGKFQSKQMENVLRRYILEYVTCKTCKSINTELKREQSNRLFFMVCKSCGSTRSVSSIKTGFQATVGKRRRM | 1 | binds |
